In this assay the target is Human PTH1 receptor with a His-tag (human) (UniProt Q03431). Put plainly: QCM biosensor; PTH1R amine coupled to an LNB-carboxyl chip (Attana Cell 200); PTH injected at 4-20 ug/mL, 35 uL, 25 uL/min, dissociation 510 s; 20 °C; 10 mM HEPES, 150 mM NaCl, 0.005% Tween-20, pH 7.4; rate constant distributions (AIDA) and two-site model fitted to the sensorgrams one by one.

Consider 1 substance from article PMC6150654.

Chain of UniProt Q03431 (Q03431 27-593): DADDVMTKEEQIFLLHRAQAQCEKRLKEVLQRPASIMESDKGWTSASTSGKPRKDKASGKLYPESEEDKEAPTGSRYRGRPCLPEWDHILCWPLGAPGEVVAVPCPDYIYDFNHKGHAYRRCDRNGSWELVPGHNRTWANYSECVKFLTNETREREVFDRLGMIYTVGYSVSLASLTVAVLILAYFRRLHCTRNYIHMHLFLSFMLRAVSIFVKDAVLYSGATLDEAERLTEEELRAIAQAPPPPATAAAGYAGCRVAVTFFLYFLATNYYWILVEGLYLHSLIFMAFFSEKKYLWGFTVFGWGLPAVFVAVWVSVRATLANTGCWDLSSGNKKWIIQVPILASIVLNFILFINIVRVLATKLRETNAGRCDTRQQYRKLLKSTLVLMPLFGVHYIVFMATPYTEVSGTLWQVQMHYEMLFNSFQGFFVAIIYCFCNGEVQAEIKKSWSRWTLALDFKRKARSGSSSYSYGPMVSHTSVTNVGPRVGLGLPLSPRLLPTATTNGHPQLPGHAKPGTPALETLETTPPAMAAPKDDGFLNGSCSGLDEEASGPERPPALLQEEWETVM

Take parathyroid hormone (1-34) (peptide): the log10(ka), both distributions of the RCD (4129 nM injection) was 4; the log10(ka), first cluster (two-site fit) was found to be 4.2; the log10(ka), second cluster (two-site fit) came to 3.7; the log10(kd), first cluster (two-site fit) was -0.9. This substance came in with a log10(kd), one distribution of the RCD (4129 nM injection) of -2; a log10(kd), other distribution of the RCD (4129 nM injection) of -1; a log10(kd), second cluster (two-site fit) of -2.3.
